Laboratory results from patent US20230295310A1 (ABCELLERA BIOLOGICS, published 2023).

Target: human EGFR, C-terminal eGFP-tagged, on CHO-K1 cells (human, UniProt P00533 25-1210)
Assay: cell-based or functional assay

Binder | EC50 CHO-K1 EGFR Low (nM); T cell activation bioassay, luciferase [nM] | EC50 CHO-K1 EGFR Med (nM); T cell activation bioassay, luciferase [nM]
GOMP001_bsAb_044 (bispecific antibody, human IgG1, kappa, L234A L235A) heavy 1: EVQLVESGGGLVKTGGSLRLSCVASGFSFKKAWMNWVRYAPGKGLEWVGRIKRNTDGGTADYAARVKGRFTLSRDDSKKTLFLQMNSLKTEDTAVYYCTTLDSSSYYVGYYYMDVWGRGTTVTVSSASTKGPSVFPLAPSSKSTSGGTAALGCLVKDYFPEPVTVSWNSGALTSGVHTFPAVLQSSGLYSLSSVVTVPSSSLGTQTYICNVNHKPSNTKVDKKVEPKSCDKTHTCPPCPAPEAAGGPSVFLFPPKPKDTLMISRTPEVTCVVVDVSHEDPEVKFNWYVDGVEVHNAKTKPREEQYNSTYRVVSVLTVLHQDWLNGKEYKCKVSNKALPAPIEKTISKAKGQPRRPRVYTLPPSREEMTKNQVSLVCLVKGFYPSDIAVEWESNGQPENNYKTTPPVLDSDGSFFLYSVLTVDKSRWQQGNVFSCSVMHEALHNHYTQKSLSLSPG light 1: DIQMTQSPSSVSASVGDRVTITCRASQDINNWLAWYQRKPGDAPKLLIYTASSLQSGVPSRFSGSGSGTDFTLTIGSLQPEDFATYYCQQAHSLPITFGQGTRLEIKRTVAAPSVFIFPPSDEQLKSGTASVVCLLNNFYPREAKVQWKVDNALQSGNSQESVTEQDSKDSTYSLSSTLTLSKADYEKHKVYACEVTHQGLSSPVTKSFNRGEC heavy 2: QVQLVQSGAEVKKPGASVKVSCKASGYTFTSHWMHWVRYAPGQGLEWIGEFNPSNGRTNYNEKFKSKATMTVDTSTNTAYMELSSLRSEDTAVYYCASRDYDYDGRYFDYWGRGTLVTVSSASTKGPSVFPLAPSSKSTSGGTAALGCLVKDYFPEPVTVSWNSGALTSGVHTFPAVLQSSGLYSLSSVVTVPSSSLGTQTYICNVNHKPSNTKVDKKVEPKSCDKTHTCPPCPAPEAAGGPSVFLFPPKPKDTLMISRTPEVTCVVVDVSHEDPEVKFNWYVDGVEVHNAKTKPREEQYNSTYRVVSVLTVLHQDWLNGKEYKCKVSNKALPAPIEKTISKAKGQPRRPRVYTLPPSREEMTKNQVSLVCLVKGFYPSDIAVEWESNGQPENNYKTTPPVLDSDGSFFLYSVLTVDKSRWQQGNVFSCSVMHEALHNHYTQKSLSLSPG light 2: DIQMTQSPSSLSASVGDRVTITCSASSSVTYMYWYQRKPGDAPKLLIYDTSNLASGVPSRFSGSGSGTDYTFTISSLQPEDIATYYCQQWSSHIFTFGQGTKVEIKRTVAAPSVFIFPPSDEQLKSGTASVVCLLNNFYPREAKVQWKVDNALQSGNSQESVTEQDSKDSTYSLSSTLTLSKADYEKHKVYACEVTHQGLSSPVTKSFNRGEC | 0.0136 | 0.0041
GOMP001_bsAb_045 (bispecific antibody, human IgG1, kappa, L234A L235A) heavy 1: QVQLVQSGAEVKKPGASVKVSCKASGYTFTSHWMHWVRKAPGQGLEWIGEFNPSNGRTNYNEEFKSKATMTVDTSTNTAYMELSSLRSEDTAVYYCASRDYDYDGRYFDYWGQGTLVTVSSASTKGPSVFPLAPSSKSTSGGTAALGCLVADYFPEPVTVSWNSGALTSGVHTFPAVLQSSGLYSLSSVVTVPSSSLGTQTYICNVNHKPSNTKVDEKVEPKSCDKTHTCPPCPAPEAAGGPSVFLFPPKPKDTLMISRTPEVTCVVVDVSHEDPEVKFNWYVDGVEVHNAKTKPREEQYNSTYRVVSVLTVLHQDWLNGKEYKCKVSNKALPAPIEKTISKAKGQPREPQVYTLPPSREEMTDNQVSLTCLVKGFYPSDIAVEWESNGQPENNYKTTPPVLMSDGSFFLASKLTVDKSRWQQGNVFSCSVMHEALHNHYTQKSLSLSPG light 1: RIQMTQSPSSLSASVGDRVTITCSASSSVTYMYWYQDKPGKAPKLLIYDTSNLASGVPSRFSGSGSGTDYTFTISSLQPEDIATYYCQQWSSHIFTFGQGTKVEIKRTVAAPSVFIFPPSDKQLKSGTARVVCLLNNFYPREAKVQWKVDNALQSGNSQESVTEQDSKDSTYSLSSTLTLSKADYEKHKVYACEVTHQGLSSPVTKSFNRGEC heavy 2: QVQLVQSGAEVKKPGASVKVSCKASGYTFTSHWMHWVRKAPGQGLEWIGEFNPSNGRTNYNEEFKSKATMTVDTSTNTAYMELSSLRSEDTAVYYCASRDYDYDGRYFDYWGQGTLVTVSSASTKGPSVFPLAPSSKSTSGGTAALGCLVADYFPEPVTVSWNSGALTSGVHTFPAVLQSSGLYSLSSVVTVPSSSLGTQTYICNVNHKPSNTKVDEKVEPKSCDKTHTCPPCPAPEAAGGPSVFLFPPKPKDTLMISRTPEVTCVVVDVSHEDPEVKFNWYVDGVEVHNAKTKPREEQYNSTYRVVSVLTVLHQDWLNGKEYKCKVSNKALPAPIEKTISKAKGQPREPQVYTLPPSREEMTDNQVSLTCLVKGFYPSDIAVEWESNGQPENNYKTTPPVLMSDGSFFLASKLTVDKSRWQQGNVFSCSVMHEALHNHYTQKSLSLSPG light 2: not shown | 0.071 | 0.00792
GOMP001_bsAb_046 (bispecific antibody, human IgG1, kappa, L234A L235A) heavy 1: QVQLVQSGAEVKKPGASVKVSCKASGYTFTSHWMHWVRKAPGQGLEWIGEFNPSNGRTNYNEEFKSKATMTVDTSTNTAYMELSSLRSEDTAVYYCASRDYDYDGRYFDYWGQGTLVTVSSASTKGPSVFPLAPSSKSTSGGTAALGCLVADYFPEPVTVSWNSGALTSGVHTFPAVLQSSGLYSLSSVVTVPSSSLGTQTYICNVNHKPSNTKVDEKVEPKSCDKTHTCPPCPAPEAAGGPSVFLFPPKPKDTLMISRTPEVTCVVVDVSHEDPEVKFNWYVDGVEVHNAKTKPREEQYNSTYRVVSVLTVLHQDWLNGKEYKCKVSNKALPAPIEKTISKAKGQPREPQVYTLPPSREEMTDNQVSLTCLVKGFYPSDIAVEWESNGQPENNYKTTPPVLMSDGSFFLASKLTVDKSRWQQGNVFSCSVMHEALHNHYTQKSLSLSPG light 1: not shown heavy 2: QVQLVQSGAEVKKPGASVKVSCKASGYTFTSHWMHWVRYAPGQGLEWIGEFNPSNGRTNYNEKFKSKATMTVDTSTNTAYMELSSLRSEDTAVYYCASRDYDYDGRYFDYWGRGTLVTVSSASTKGPSVFPLAPSSKSTSGGTAALGCLVKDYFPEPVTVSWNSGALTSGVHTFPAVLQSSGLYSLSSVVTVPSSSLGTQTYICNVNHKPSNTKVDKKVEPKSCDKTHTCPPCPAPEAAGGPSVFLFPPKPKDTLMISRTPEVTCVVVDVSHEDPEVKFNWYVDGVEVHNAKTKPREEQYNSTYRVVSVLTVLHQDWLNGKEYKCKVSNKALPAPIEKTISKAKGQPRRPRVYTLPPSREEMTKNQVSLVCLVKGFYPSDIAVEWESNGQPENNYKTTPPVLDSDGSFFLYSVLTVDKSRWQQGNVFSCSVMHEALHNHYTQKSLSLSPG light 2: DIQMTQSPSSLSASVGDRVTITCSASSSVTYMYWYQRKPGDAPKLLIYDTSNLASGVPSRFSGSGSGTDYTFTISSLQPEDIATYYCQQWSSHIFTFGQGTKVEIKRTVAAPSVFIFPPSDEQLKSGTASVVCLLNNFYPREAKVQWKVDNALQSGNSQESVTEQDSKDSTYSLSSTLTLSKADYEKHKVYACEVTHQGLSSPVTKSFNRGEC | 0.02 | 0.00409

Next, values leading:

EC50 CHO-K1 EGFR Low (nM); T cell activation bioassay, luciferase [nM] | EC50 CHO-K1 EGFR Med (nM); T cell activation bioassay, luciferase [nM] | Binder
0.0706 | 0.0122 | GOMP001_bsAb_043 (bispecific antibody, human IgG1, kappa, L234A L235A) heavy 1: QVQLVQSGAEVKKPGASVKVSCKASGYTFTSHWMHWVRKAPGQGLEWIGEFNPSNGRTNYNEEFKSKATMTVDTSTNTAYMELSSLRSEDTAVYYCASRDYDYDGRYFDYWGQGTLVTVSSASTKGPSVFPLAPSSKSTSGGTAALGCLVADYFPEPVTVSWNSGALTSGVHTFPAVLQSSGLYSLSSVVTVPSSSLGTQTYICNVNHKPSNTKVDEKVEPKSCDKTHTCPPCPAPEAAGGPSVFLFPPKPKDTLMISRTPEVTCVVVDVSHEDPEVKFNWYVDGVEVHNAKTKPREEQYNSTYRVVSVLTVLHQDWLNGKEYKCKVSNKALPAPIEKTISKAKGQPREPQVYTLPPSREEMTDNQVSLTCLVKGFYPSDIAVEWESNGQPENNYKTTPPVLMSDGSFFLASKLTVDKSRWQQGNVFSCSVMHEALHNHYTQKSLSLSPG light 1: RIQMTQSPSSLSASVGDRVTITCSASSSVTYMYWYQDKPGKAPKLLIYDTSNLASGVPSRFSGSGSGTDYTFTISSLQPEDIATYYCQQWSSHIFTFGQGTKVEIKRTVAAPSVFIFPPSDKQLKSGTARVVCLLNNFYPREAKVQWKVDNALQSGNSQESVTEQDSKDSTYSLSSTLTLSKADYEKHKVYACEVTHQGLSSPVTKSFNRGEC heavy 2: EVQLVESGGGLVKTGGSLRLSCVASGFSFKKAWMNWVRYAPGKGLEWVGRIKRNTDGGTADYAARVKGRFTLSRDDSKKTLFLQMNSLKTEDTAVYYCTTLDSSSYYVGYYYMDVWGRGTTVTVSSASTKGPSVFPLAPSSKSTSGGTAALGCLVKDYFPEPVTVSWNSGALTSGVHTFPAVLQSSGLYSLSSVVTVPSSSLGTQTYICNVNHKPSNTKVDKKVEPKSCDKTHTCPPCPAPEAAGGPSVFLFPPKPKDTLMISRTPEVTCVVVDVSHEDPEVKFNWYVDGVEVHNAKTKPREEQYNSTYRVVSVLTVLHQDWLNGKEYKCKVSNKALPAPIEKTISKAKGQPRRPRVYTLPPSREEMTKNQVSLVCLVKGFYPSDIAVEWESNGQPENNYKTTPPVLDSDGSFFLYSVLTVDKSRWQQGNVFSCSVMHEALHNHYTQKSLSLSPG light 2: DIQMTQSPSSVSASVGDRVTITCRASQDINNWLAWYQRKPGDAPKLLIYTASSLQSGVPSRFSGSGSGTDFTLTIGSLQPEDFATYYCQQAHSLPITFGQGTRLEIKRTVAAPSVFIFPPSDEQLKSGTASVVCLLNNFYPREAKVQWKVDNALQSGNSQESVTEQDSKDSTYSLSSTLTLSKADYEKHKVYACEVTHQGLSSPVTKSFNRGEC
– | 0.138 | GOMP001_bsAb_049 (bispecific antibody, human IgG1, kappa, L234A L235A) heavy 1: QVQLVQSGAEVKKPGASVKVSCKASGYTFTSHWMHWVRKAPGQGLEWIGEFNPSNGRTNYNEEFKSKATMTVDTSTNTAYMELSSLRSEDTAVYYCASRDYDYDGRYFDYWGQGTLVTVSSASTKGPSVFPLAPSSKSTSGGTAALGCLVADYFPEPVTVSWNSGALTSGVHTFPAVLQSSGLYSLSSVVTVPSSSLGTQTYICNVNHKPSNTKVDEKVEPKSCDKTHTCPPCPAPEAAGGPSVFLFPPKPKDTLMISRTPEVTCVVVDVSHEDPEVKFNWYVDGVEVHNAKTKPREEQYNSTYRVVSVLTVLHQDWLNGKEYKCKVSNKALPAPIEKTISKAKGQPREPQVYTLPPSREEMTDNQVSLTCLVKGFYPSDIAVEWESNGQPENNYKTTPPVLMSDGSFFLASKLTVDKSRWQQGNVFSCSVMHEALHNHYTQKSLSLSPG light 1: RIQMTQSPSSLSASVGDRVTITCSASSSVTYMYWYQDKPGKAPKLLIYDTSNLASGVPSRFSGSGSGTDYTFTISSLQPEDIATYYCQQWSSHIFTFGQGTKVEIKRTVAAPSVFIFPPSDKQLKSGTARVVCLLNNFYPREAKVQWKVDNALQSGNSQESVTEQDSKDSTYSLSSTLTLSKADYEKHKVYACEVTHQGLSSPVTKSFNRGEC heavy 2: QVQLVESGGGVVQPGRSLRLSCAASGFTFSTYGMHWVRYAPGKGLEWVAVIWYDGSHKYYADRVKGRFTISRDNSKKTLYLQMNSLRAEDTGIYYCARTGISGNMSYFYFDHWGRGILVTVSSASTKGPSVFPLAPSSKSTSGGTAALGCLVKDYFPEPVTVSWNSGALTSGVHTFPAVLQSSGLYSLSSVVTVPSSSLGTQTYICNVNHKPSNTKVDKKVEPKSCDKTHTCPPCPAPEAAGGPSVFLFPPKPKDTLMISRTPEVTCVVVDVSHEDPEVKFNWYVDGVEVHNAKTKPREEQYNSTYRVVSVLTVLHQDWLNGKEYKCKVSNKALPAPIEKTISKAKGQPRRPRVYTLPPSREEMTKNQVSLVCLVKGFYPSDIAVEWESNGQPENNYKTTPPVLDSDGSFFLYSVLTVDKSRWQQGNVFSCSVMHEALHNHYTQKSLSLSPG light 2: not shown
